In patent EP1666595A1 (Beth Israel Deaconess Medical Center, Inc., dated 2006):

T1: SHP-2 (endogenous, in BaF3, P210BCR-ABL BaF3 and BAC1.2F5 cells) (UniProt P35235 2-593)
T1 sequence (looked up): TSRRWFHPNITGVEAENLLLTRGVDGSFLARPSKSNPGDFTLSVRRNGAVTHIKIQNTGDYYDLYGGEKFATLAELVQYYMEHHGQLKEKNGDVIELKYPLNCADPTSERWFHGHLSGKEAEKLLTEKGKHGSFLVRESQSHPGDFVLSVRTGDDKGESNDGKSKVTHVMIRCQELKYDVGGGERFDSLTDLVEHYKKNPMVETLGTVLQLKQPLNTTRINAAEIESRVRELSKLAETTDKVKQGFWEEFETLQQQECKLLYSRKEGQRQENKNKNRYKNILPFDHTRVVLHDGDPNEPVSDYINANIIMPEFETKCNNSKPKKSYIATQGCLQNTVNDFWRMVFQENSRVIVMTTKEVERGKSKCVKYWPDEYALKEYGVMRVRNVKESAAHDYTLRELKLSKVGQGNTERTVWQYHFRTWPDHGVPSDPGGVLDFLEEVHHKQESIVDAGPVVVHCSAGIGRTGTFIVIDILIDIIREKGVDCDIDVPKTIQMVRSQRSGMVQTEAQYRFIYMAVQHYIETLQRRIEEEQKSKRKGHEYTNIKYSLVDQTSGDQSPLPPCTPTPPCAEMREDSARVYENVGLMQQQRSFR

B1: Gab2HA (HA-tagged wild type Gab2) (other, not shown: small tags and cut ends)
chain: MSGGGGDDVVCTGWLRKSPPEKKLRRYAWKKRWFILRSGRMSGDPDVLEYYKNEHSKKPLRIINLNLCEQVDAGLTFNKKELQDSFVFDIKTSERTFYLVAETEADMNKWVQSICQICGFNQAEESTDSLRNLSSASHGPRSSPAEFSSSQHLLRERKSSAPSHSSQPTLFTFEPPVSSHMQPTLSTSAPQEYLYLHQCISRRTENARSASFSQGTRQKSDTAVQKLAQSNGHCINGVGGQVHGFYSLPKPSRHNTEFKDSTYDLPRSLASHGHTKSSLTGSETDNEDVYTFKMPSNTLCRELGDLLVDNMDVPTTPLSAYQIPRTFTLDKNHNAMTVATPGDSAIAPPPRPPKPSQAETSQWGSIQQRPPISENSRSVAATIPRRNTLPAMDNSRLHRASSCETYEYPARGSGESASWSAEPPGKTAVGRSNSASSDDNYVPMNPGSSTLLAMERPGDNSQSVYIPMSPGPHHFDPLGYPSTALPIHRGPSRGSEIQPPPVNRNLKPDRKAKPTPLDLRNNTVIDELPFKSPVTKSWSRINSHTFNSSSSQYCRPISTQSITSTDSGDSEENYVPMQNPVSASPVPSGTNSPAPKKSTGSVDYLALDFQPGSPSPHRKPSTSSVTSDEKVDYVQVDKEKTQALQNTMQEWTDVRQSSEPSKGAKL
modifications: tyrosyl phosphorylated upon IL-3 stimulation

Key:
[1] = target: T1, SHP-2 (endogenous, in BaF3, P210BCR-ABL …); experiment: cell-based or functional assay
[2] = target: T2, Gab2 (endogenous, in BaF3, P210BCR-ABL BaF3 and BAC1.2F5 cells) (Mus musculus (Mouse), UniProt Q9Z1S8 1-665, tyrosyl phosphorylated upon stimulation; Y604 and Y633 'both sites are highly phosphorylated'); experiment: immunoprecipitation and immunoblotting, BaF3 cells
T2 construct: BaF3 is a murine line, and KIAA0571 is called the possible human homolog; also called p97; p97/Gab2

[3] = target: B1; experiment: immunoprecipitation and immunoblotting, transfected BaF3 cells

Row | Binder | basal c-fos luciferase activity [1] | binding result [2] | binding result [3]
1 | B1 | ~2 fold |  | 
2 | Crk-L (endogenous, in BaF3 cells) (other, UniProt P47941 1-303, looked up, Named in brackets next to Crk) MSSARFDSSDRSAWYMGPVTRQEAQTRLQGQRHGMFLVRDSSTCPGDYVLSVSENSRVSHYIINSLPNRRFKIGDQEFDHLPALLEFYKIHYLDTTTLIEPAPRYPSPPVGSVSAPNLPTAEENLEYVRTLYDFPGNDAEDLPFKKGELLVIIEKPEEQWWSARNKDGRVGMIPVPYVEKLVRSSPHGKHGNRNSNSYGIPEPAHAYAQPQTTTPLPTVASTPGAAINPLPSTQNGPVFAKAIQKRVPCAYDKTALALEVGDIVKVTRMNINGQWEGEVNGRKGLFPFTHVKIFDPQNPDDNE |  | no binding | no binding
3 | Crk (endogenous, in BaF3 cells) (other, UniProt Q64010 2-304, looked up) AGNFDSEERSSWYWGRLSRQEAVALLQGQRHGVFLVRDSSTSPGDYVLSVSENSRVSHYIINSSGPRPPVPPSPAQPPPGVSPSRLRIGDQEFDSLPALLEFYKIHYLDTTTLIEPVARSRQGSGVILRQEEAEYVRALFDFNGNDEEDLPFKKGDILRIRDKPEEQWWNAEDSEGKRGMIPVPYVEKYRPASASVSALIGGNQEGSHPQPLGGPEPGPYAQPSVNTPLPNLQNGPIYARVIQKRVPNAYDKTALALEVGELVKVTKINVSGQWEGECNGKRGHFPFTHVRLLDQQNPDEDFS |  | no binding | no binding
